B1: VDR (parent)
chain: VTLELSQLSMLPHLADLVSYSIQK
B2: FBXO39 (parent)
chain: RVFKARIYTNRYETNEEDKTLQEI

Variants of: B1
Experiment: protein stability index of a GFP-peptide fusion (GPS, HEK-293T) (PSI 1-6); higher = more stable
Conditions: c terminus: a fixed tail appended
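Also: lentivirally expressed fusions sorted by FACS into six bins by GFP to DsRed ratio, PSI derived from sequencing read proportions per bin multiplied by bin number.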

Going from VTLELSQLSMLPHLADLVSYSIKK [Q23K] to VTLELSQLSMLPHLADLVSYSILK [Q23L], the protein stability index falls from 3.23 to 3.08.

Going from VTLELSQLSMLPHLADLVSYSINK [Q23N] to VTLELSQLSMLPHLADLVSYSIPK [Q23P], the protein stability index falls from 2.07 to 1.68.

First: VTLELSQLSMLPHLADLVSYSISK [Q23S]
Second: VTLELSQLSMLPHLADLVSYSITK [Q23T]
The protein stability index of the first is lower: 2.05 for the first, 2.74 for the second.

First: VTLELSQLSMLPHLADLVSYSIVK [Q23V]
Second: VTLELSQLSMLPHLADLVSYSIWK [Q23W]
The protein stability index of the first is higher: 2.59 for the first, 1.56 for the second.

Compared with VTLELSQLSMLPHLADLVSYSIYK [Q23Y], VTLELSQLSMLPHLADLVSYSIQA [K24A] is higher in protein stability index: 1.97 for the first, 2.14 for the second.

Going from VTLELSQLSMLPHLADLVSYSIQC [K24C] to VTLELSQLSMLPHLADLVSYSIQD [K24D], the protein stability index rises from 2.39 to 3.06.

Compared with VTLELSQLSMLPHLADLVSYSIQE [K24E], VTLELSQLSMLPHLADLVSYSIQG [K24G] is lower in protein stability index: 3.5 for the first, 2.79 for the second.

First: VTLELSQLSMLPHLADLVSYSIQH [K24H]
Second: VTLELSQLSMLPHLADLVSYSIQI [K24I]
The protein stability index of the first is higher: 5.43 for the first, 4.63 for the second.

First: VTLELSQLSMLPHLADLVSYSIQL [K24L]
Second: VTLELSQLSMLPHLADLVSYSIQM [K24M]
The protein stability index of the first is lower: 1.86 for the first, 3.28 for the second.

First: VTLELSQLSMLPHLADLVSYSIQN [K24N]
Second: VTLELSQLSMLPHLADLVSYSIQP [K24P]
The protein stability index of the first is higher: 3.71 for the first, 2.95 for the second.

Compared with VTLELSQLSMLPHLADLVSYSIQQ [K24Q], VTLELSQLSMLPHLADLVSYSIQR [K24R] is lower in protein stability index: 3.06 for the first, 3.01 for the second.

Going from VTLELSQLSMLPHLADLVSYSIQS [K24S] to VTLELSQLSMLPHLADLVSYSIQT [K24T], the protein stability index rises from 2.66 to 3.5.

Going from VTLELSQLSMLPHLADLVSYSIQV [K24V] to VTLELSQLSMLPHLADLVSYSIQW [K24W], the protein stability index falls from 5.45 to 3.71.

VTLELSQLSMLPHLADLVSYSIQY [K24Y] gave a protein stability index of 3.25.

Variants of: B2
Experiment: as above
Conditions: c terminus: a fixed tail appended

First: AVFKARIYTNRYETNEEDKTLQEI [R1A]
Second: CVFKARIYTNRYETNEEDKTLQEI [R1C]
The protein stability index of the first is higher: 2.84 for the first, 1.7 for the second.

Compared with DVFKARIYTNRYETNEEDKTLQEI [R1D], FVFKARIYTNRYETNEEDKTLQEI [R1F] is lower in protein stability index: 3.95 for the first, 1.66 for the second.

Going from GVFKARIYTNRYETNEEDKTLQEI [R1G] to HVFKARIYTNRYETNEEDKTLQEI [R1H], the protein stability index falls from 3.42 to 3.35.

Compared with IVFKARIYTNRYETNEEDKTLQEI [R1I], KVFKARIYTNRYETNEEDKTLQEI [R1K] is lower in protein stability index: 3.15 for the first, 2.6 for the second.

Compared with LVFKARIYTNRYETNEEDKTLQEI [R1L], MVFKARIYTNRYETNEEDKTLQEI [R1M] is higher in protein stability index: 2.74 for the first, 3.34 for the second.

Going from PVFKARIYTNRYETNEEDKTLQEI [R1P] to QVFKARIYTNRYETNEEDKTLQEI [R1Q], the protein stability index falls from 4.26 to 3.74.

SVFKARIYTNRYETNEEDKTLQEI [R1S] and TVFKARIYTNRYETNEEDKTLQEI [R1T] are the same in protein stability index: 2.72 for the first, 2.72 for the second.

First: VVFKARIYTNRYETNEEDKTLQEI [R1V]
Second: WVFKARIYTNRYETNEEDKTLQEI [R1W]
The protein stability index of the first is lower: 1.66 for the first, 2.08 for the second.

First: YVFKARIYTNRYETNEEDKTLQEI [R1Y]
Second: RCFKARIYTNRYETNEEDKTLQEI [V2C]
The protein stability index of the first is lower: 2.14 for the first, 2.87 for the second.

First: RDFKARIYTNRYETNEEDKTLQEI [V2D]
Second: REFKARIYTNRYETNEEDKTLQEI [V2E]
The protein stability index of the first is higher: 4.76 for the first, 4.36 for the second.
